Data published in article doi:10.1101/2024.04.30.591854.
pKd: −log10 of the molar value.

Molecular target: RBK21 variable region (residues 148-299) (Plasmodium falciparum (strain Lek174))
Assay: SPR

KIR2DL1 as used in the SPR experiments with RBK21, sequence (P43626 22-348): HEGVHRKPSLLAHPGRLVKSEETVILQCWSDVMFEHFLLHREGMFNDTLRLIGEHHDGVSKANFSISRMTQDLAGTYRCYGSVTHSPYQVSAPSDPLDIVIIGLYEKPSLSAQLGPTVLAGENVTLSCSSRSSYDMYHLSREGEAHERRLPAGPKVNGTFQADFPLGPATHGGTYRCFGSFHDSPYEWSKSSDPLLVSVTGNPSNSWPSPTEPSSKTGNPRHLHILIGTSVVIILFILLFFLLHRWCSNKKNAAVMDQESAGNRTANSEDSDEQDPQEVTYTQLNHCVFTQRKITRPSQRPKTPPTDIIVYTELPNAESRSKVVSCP
KIR2DS1 as used in the SPR experiment with RBK21, sequence (Q14954 22-304): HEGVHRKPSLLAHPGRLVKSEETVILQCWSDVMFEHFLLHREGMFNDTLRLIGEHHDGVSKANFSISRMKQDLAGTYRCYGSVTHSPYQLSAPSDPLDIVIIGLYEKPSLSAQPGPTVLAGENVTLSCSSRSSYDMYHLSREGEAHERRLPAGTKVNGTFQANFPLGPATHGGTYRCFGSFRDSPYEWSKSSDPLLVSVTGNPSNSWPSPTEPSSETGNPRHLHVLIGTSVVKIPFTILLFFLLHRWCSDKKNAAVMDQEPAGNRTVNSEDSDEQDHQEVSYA

Substance	pKd
KIR2DL1 as used in the SPR experiments with RBK21 (from UniProt P43626 22-348) (receptor)	6.35
KIR2DS1 as used in the SPR experiment with RBK21 (from UniProt Q14954 22-304) (receptor)	5.70
